In publication PMC11863153, “Mechanistic Insights Into Oxidative Response of Heat Shock Factor 1 Condensates” (JACS Au, 2025):
Changes are numbered by the printed parent chain. Names and notes keep the numbering of the source. Values joined by “and” are separate entries in the source; they are usually repeats but may differ in a detail not shown here. Equal entries are not always repeated.

Columns and labels:
[1] = target: T1, Heat shock factor 1 (Hsf1) wild-type (human), Q00613; assay: SEC-MALS; without reductant (oxidative conditions); 50 uM injected; 25 mM HEPES/KOH pH 7.2, 150 mM KCl; Bio SEC-5 1000 A column; oligomer size from the median molar mass; conditions: remark: other sources report otherwise
T1 chain: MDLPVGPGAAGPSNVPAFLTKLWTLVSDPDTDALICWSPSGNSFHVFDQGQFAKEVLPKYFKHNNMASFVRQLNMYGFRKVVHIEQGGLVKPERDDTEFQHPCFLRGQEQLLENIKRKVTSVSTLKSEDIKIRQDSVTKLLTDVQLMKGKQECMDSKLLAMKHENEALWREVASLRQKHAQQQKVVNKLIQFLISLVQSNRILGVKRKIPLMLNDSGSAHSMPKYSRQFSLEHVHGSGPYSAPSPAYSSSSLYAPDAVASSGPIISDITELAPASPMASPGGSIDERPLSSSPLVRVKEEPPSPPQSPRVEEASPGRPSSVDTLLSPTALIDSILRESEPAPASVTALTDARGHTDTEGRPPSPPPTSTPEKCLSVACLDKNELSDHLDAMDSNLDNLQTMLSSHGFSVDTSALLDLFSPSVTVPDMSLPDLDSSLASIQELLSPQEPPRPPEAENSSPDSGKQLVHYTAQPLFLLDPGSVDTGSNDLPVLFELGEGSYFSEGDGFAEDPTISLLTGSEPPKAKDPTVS

[2] = target: T1, Heat shock factor 1 (Hsf1) wild-type …; assay: SEC-MALS; with 10 mM DTT (+ Reductant); 50 uM injected; 25 mM HEPES/KOH pH 7.2, 150 mM KCl; Bio SEC-5 1000 A column; oligomer size from the median molar mass; conditions: remark: other sources report otherwise
[3] = target: the molecule itself; assay: SEC; analytical SEC at varying protein concentrations; change of elution volume with decreasing concentration
[4] = target: the molecule itself; assay: SEC-MALS; without reductant (oxidative conditions); 50 uM injected; 25 mM HEPES/KOH pH 7.2, 150 mM KCl; Bio SEC-5 1000 A column; oligomer size from the median molar mass

B1: Heat shock factor 1 (Hsf1) wild-type, Q00613 1-529 (natural protein)
chain: T1 chain
stoichiometry N [1]: 9 mer and < 16 mer
stoichiometry N [2]: 7 mer

B2: Hsf1 C153S mutant (natural protein, human, UniProt Q00613 1-529, looked up)
chain: T1 chain with C153S
notes: Heat shock factor 1 (Hsf1), human, C153S in the leucine-zipper domain LZ1-3; source: E. coli BL21(DE3), purified (Ni-NTA, HRV3C cleavage, HiTrap Q anion exchange, Superdex 200 gel filtration); not shown: GB1, N-terminal, cleaved; His6, N-terminal, cleaved
binding result [3]: binds

B3: Hsf1 CS5 mutant (C36S/C103S/C153S/C373S/C378S) (natural protein, human, UniProt Q00613 1-529, looked up)
chain: T1 chain with C36S, C103S, C153S, C373S, C378S
notes: Heat shock factor 1 (Hsf1), human, all five cysteines replaced with serine; also called Hsf1 CS mutant; source: E. coli BL21(DE3), purified (Ni-NTA, HRV3C cleavage, HiTrap Q anion exchange, Superdex 200 gel filtration); not shown: GB1, N-terminal, cleaved; His6, N-terminal, cleaved
stoichiometry N [4]: ~5 mer
